EC50 data for one molecule are collected here from patent US20260116960A1 (SHANGHAI HONGCHENG BIOPHARMACEUTICAL, published 2026).

In test [1] the target is T1, hCTLA4-mFc (DIMA BIOTECH, Catalog No. PME100017) (human, UniProt P16410 36-161, limits assumed).
T1 construct: Bought protein; also called human CTLA-4 mouse Fc fusion; not shown: mouse Fc (mFc)
Put plainly: flow cytometry: antibody titrated on 293T-hPD-1 cells, then mixture of biotin-hVEGF165 and hCTLA4-mFc; AF647 anti-mIgG signal; CTLA-4 signal after binding to cell surface PD-1. The procedure:
(§1) 200 μL/well of the cells were added to a 96-well U-bottom plate. After centrifugation at 300 g for 5 minutes, the supernatant was discarded and 100 μL of antibody solution serially diluted with FACS buffer was added to each well in triplicate (with starting concentration of 200 nM, 3-fold serial dilution, and the same volume of FACS buffer was used as a negative control). Mixed well and incubated at 4° C. for 60 min. After washing the plate three times with FACS buffer, a mixture consisting of 1 μg/mL Biotin-hVEGF165 and 1 μg/mL hCTLA4-mFc (DIMA BIOTECH, Catalog No.: PME100017) in a 1:1 volume ratio was added to each well at 100 μL/well to detect the simultaneously binding activity of the trispecific antibodies to CTLA-4 and VEGF after binding to cell surface PD-1. […] After washing the plate three times with FACS buffer, 100 μL/well of PBS solution was added to resuspend the cells, and the fluorescence signal was detected on a flow cytometer (BECKMAN COULTER cytoFLEX). The binding activity was fitted using a four-parameter model, and the EC₅₀ value of each antibody was calculated.
In general terms: Flow cytometry measures light scatter and fluorescence of single cells or particles in a stream.

In test [2] the target is T2, Biotinylated Human VEGF165 (Acro, Catalog No. VE5-H82Q0) (human, UniProt P15692-4 27-191, biotinylated (site not stated)).
T2 construct: Bought protein; also called Biotinylated-hVEGF165; Biotin-hVEGF165
Put plainly: flow cytometry: antibody titrated on 293T-hPD-1 cells, then mixture of biotin-hVEGF165 and hCTLA4-mFc; PE streptavidin signal; VEGF signal after binding to cell surface PD-1. The procedure: as §1

T1 sequence (P16410 36-161 limits assumed): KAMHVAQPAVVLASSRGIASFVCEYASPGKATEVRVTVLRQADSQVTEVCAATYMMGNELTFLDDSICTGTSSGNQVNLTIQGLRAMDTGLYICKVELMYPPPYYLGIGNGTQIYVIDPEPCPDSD
T2 sequence (P15692 other isoform, or with tags, fused parts or gaps limits assumed): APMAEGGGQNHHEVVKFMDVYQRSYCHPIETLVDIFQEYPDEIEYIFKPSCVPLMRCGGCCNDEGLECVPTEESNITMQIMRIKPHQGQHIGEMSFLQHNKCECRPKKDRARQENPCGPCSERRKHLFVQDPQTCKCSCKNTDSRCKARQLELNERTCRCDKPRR

B1: HC010-F10 (trispecific antibody, human IgG4 S228P, kappa)
heavy: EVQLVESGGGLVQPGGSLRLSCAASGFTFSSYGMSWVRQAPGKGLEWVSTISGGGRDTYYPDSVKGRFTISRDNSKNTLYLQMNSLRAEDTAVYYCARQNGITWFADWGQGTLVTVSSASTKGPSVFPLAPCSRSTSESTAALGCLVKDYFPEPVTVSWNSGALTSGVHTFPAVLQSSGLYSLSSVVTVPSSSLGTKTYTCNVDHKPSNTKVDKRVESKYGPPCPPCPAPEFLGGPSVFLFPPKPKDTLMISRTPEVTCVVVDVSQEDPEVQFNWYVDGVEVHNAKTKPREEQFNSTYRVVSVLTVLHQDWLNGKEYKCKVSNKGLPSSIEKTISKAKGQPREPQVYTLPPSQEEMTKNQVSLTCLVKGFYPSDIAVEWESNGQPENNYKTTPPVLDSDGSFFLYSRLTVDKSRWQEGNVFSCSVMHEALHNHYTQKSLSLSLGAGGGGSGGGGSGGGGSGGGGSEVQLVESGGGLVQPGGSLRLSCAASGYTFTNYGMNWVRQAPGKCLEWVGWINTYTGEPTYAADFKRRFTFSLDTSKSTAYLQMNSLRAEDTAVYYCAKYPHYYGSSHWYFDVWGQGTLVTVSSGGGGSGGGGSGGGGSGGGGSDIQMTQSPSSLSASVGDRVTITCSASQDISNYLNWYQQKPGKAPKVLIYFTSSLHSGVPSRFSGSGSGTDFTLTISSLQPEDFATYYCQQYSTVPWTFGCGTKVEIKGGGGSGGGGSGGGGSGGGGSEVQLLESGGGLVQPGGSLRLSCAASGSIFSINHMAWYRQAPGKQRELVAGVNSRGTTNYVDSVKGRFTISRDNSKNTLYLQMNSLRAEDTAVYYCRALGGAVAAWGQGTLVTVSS
light: DIQMTQSPSSLSASVGDRVTITCRASESVDNYGISFMNWYQQKPGKAPKLLIYAASNQGSGVPSRFSGSGSGTDFTLTISSLQPEDFATYYCQQSKEVPWTFGGGTKVEIKRTVAAPSVFIFPPSDEQLKSGTASVVCLLNNFYPREAKVQWKVDNALQSGNSQESVTEQDSKDSTYSLSSTLTLSKADYEKHKVYACEVTHQGLSSPVTKSFNRGEC
notes: light: CQ1-3/1-11 VL-kappa; also called H010-F10
In the case of B1, the concentration giving a half-maximal response (EC50) – broadly, the midpoint of the concentration-response curve – was determined as 3.32 nM in test [1] and 2.83 nM in test [2].
